Consider 3 proteins from PMC4854385, “The Caenorhabditis elegans Protein FIC-1 Is an AMPylase That Covalently Modifies Heat-Shock 70 Family Proteins, Translation Elongation Factors and Histones” (PLoS Genetics, 2016).

Data set [1] deals with the molecule itself. Nature of the data set: cell-based or functional assay.
Data set [2] deals with the molecule itself. Nature of the data set: crystal structure; hanging drop vapor diffusion, 18°C, 0.1 M MES pH 6.5, 1.1 M ammonium sulfate; two molecules in the asymmetric unit.

B1: FIC-1_(134-508) E274G/I298D (domain or fragment, C. elegans, UniProt Q23544 134-508, looked up)
chain: DEKRENDPAKVKEAILAAKAAGRSRKDGNLERAMTIMEHAMALAPTNPQILIEMGQIREMHNELVEADQCYVKALAYDPGNSEALVLRARTTPLVSAIDRKMLRSVHDLRDEFNHLQHSTALRRMMRETYFLYVYHTVAIGGNTLSLGQTRAILESGMVIPGKSDREHNEVIGMDAALRFLNCSLLSKEHDEISIDDILEMHRRVLGNADPVEAGRIRTTQVYVGRFTPVSPEYVMEQLKDIVDWLNDESTLTIDPIERAAIAHYKLVLVHPFTDGNGRTARLLLNLIMMRSGFPPVILPVETRAEYYASLHVANLGDLRPFVRYVAKHSEASIQRYIGAMKTSSDNILNSGDSKLTPEESEVSEKIEAECRAGN
Consider B1, for which, in data set [1], the “self-AMPylation of FIC-1 E274G/I298D relative to FIC-1 E274G (in vitro AMPylation with α33P-ATP, autoradiography)” value was 46% and the “target (histone H3) AMPylation by FIC-1 E274G/I298D relative to FIC-1 E274G (in vitro AMPylation with α33P-ATP, autoradiography)” value was 11%.

B2: FIC-1_(134-508) (domain or fragment, C. elegans, UniProt Q23544 134-508, looked up)
chain: DEKRENDPAKVKEAILAAKAAGRSRKDGNLERAMTIMEHAMALAPTNPQILIEMGQIREMHNELVEADQCYVKALAYDPGNSEALVLRARTTPLVSAIDRKMLRSVHDLRDEFNHLQHSTALRRMMRETYFLYVYHTVAIEGNTLSLGQTRAILESGMVIPGKSIREHNEVIGMDAALRFLNCSLLSKEHDEISIDDILEMHRRVLGNADPVEAGRIRTTQVYVGRFTPVSPEYVMEQLKDIVDWLNDESTLTIDPIERAAIAHYKLVLVHPFTDGNGRTARLLLNLIMMRSGFPPVILPVETRAEYYASLHVANLGDLRPFVRYVAKHSEASIQRYIGAMKTSSDNILNSGDSKLTPEESEVSEKIEAECRAGN
notes: C. elegans Fic protein FIC-1, residues 134-508; transmembrane helix and membrane proximal domain excluded; also called FIC-1 wild type; FIC-1 wildtype (wt); source: E. coli LOBSTR-RIL(DE3), purified (Ni-Sepharose, size-exclusion chromatography); not shown: His6, N-terminal, kept
For the protein B2, the binding result in data set [2] is listed as “binds”.

B3: FIC-1_(134-508) E274G (domain or fragment, C. elegans, UniProt Q23544 134-508, looked up)
chain: DEKRENDPAKVKEAILAAKAAGRSRKDGNLERAMTIMEHAMALAPTNPQILIEMGQIREMHNELVEADQCYVKALAYDPGNSEALVLRARTTPLVSAIDRKMLRSVHDLRDEFNHLQHSTALRRMMRETYFLYVYHTVAIGGNTLSLGQTRAILESGMVIPGKSIREHNEVIGMDAALRFLNCSLLSKEHDEISIDDILEMHRRVLGNADPVEAGRIRTTQVYVGRFTPVSPEYVMEQLKDIVDWLNDESTLTIDPIERAAIAHYKLVLVHPFTDGNGRTARLLLNLIMMRSGFPPVILPVETRAEYYASLHVANLGDLRPFVRYVAKHSEASIQRYIGAMKTSSDNILNSGDSKLTPEESEVSEKIEAECRAGN
notes: C. elegans Fic protein FIC-1, residues 134-508, constitutively active mutant; transmembrane helix and membrane proximal domain excluded; Non-cleavable N-terminal 6x His tag; also called FIC-1 E274G; source: E. coli LOBSTR-RIL(DE3), purified (Ni-Sepharose, size-exclusion chromatography); not shown: His6, N-terminal, kept
As for B3, the binding result in data set [2] was “binds”.
